# Data published in patent publication US20190142724A1 (CREDENTIS, published 2019).
# No end group written: not given here.
# Target: the molecule itself
# Experiment: rheology (elastic modulus G'), P11-4 at 15 mg/ml in different buffers, 37 C; homotypic self-assembly
# Procedure: P11-4 was prepared at 15 mg/ml with different buffer compositions (see below) measured at 0.1% strain, 37° C. and a frequency of 1 rad/second. Self-assembly of peptide monomers to polymers takes more than 5 min independent of the used ionic strength at neutral pH.
protein,measurement,value
QQRFEWEFEQQ (not fully specified; printed as Gln-Gln-Arg-Phe-Glu-Trp-Glu-Phe-Glu-Gln-Gln) [self-assembling peptide P11-4],binding result,binds
